Like-named read-outs stand apart in the source and are kept apart here.
How the values were obtained:
[1] = biological target: T1, mouse LAG-3 on transfected cells (mouse, UniProt Q61790 24-521); experiment: FACS on mouse LAG-3 transfected cells
T1 construct: whole, on cells; Flp-In-CHO cells transfected with mouse LAG-3; also called cell surface mouse LAG-3; murine LAG-3
T1 sequence (looked up): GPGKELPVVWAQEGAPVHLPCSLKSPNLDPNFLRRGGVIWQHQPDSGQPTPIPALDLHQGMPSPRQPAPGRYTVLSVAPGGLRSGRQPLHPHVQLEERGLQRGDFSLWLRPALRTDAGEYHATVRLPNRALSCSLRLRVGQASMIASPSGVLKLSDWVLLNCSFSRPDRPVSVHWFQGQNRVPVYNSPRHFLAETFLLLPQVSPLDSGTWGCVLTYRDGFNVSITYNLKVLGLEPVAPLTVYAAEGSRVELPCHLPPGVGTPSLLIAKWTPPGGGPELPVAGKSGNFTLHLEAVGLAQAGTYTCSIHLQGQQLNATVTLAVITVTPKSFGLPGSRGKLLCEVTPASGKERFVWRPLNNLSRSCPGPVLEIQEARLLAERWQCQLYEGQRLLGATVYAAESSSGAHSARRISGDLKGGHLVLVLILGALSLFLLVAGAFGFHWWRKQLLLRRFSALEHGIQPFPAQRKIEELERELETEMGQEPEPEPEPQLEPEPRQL
Method: (§1) Similarly, cross-reactivity to cynomolgus or murine LAG-3 was tested by FACS with cyno or murine LAG-3 transfected cell lines.

[2] = biological target: T2, human LAG-3 on transfected cells (human, UniProt P18627 23-525); experiment: FACS affinity on transfected cells
T2 construct: whole, on cells; Flp-In-293 or CHO-K1 cells transfected with full length human LAG-3; also called cell surface human LAG-3
T2 sequence (looked up): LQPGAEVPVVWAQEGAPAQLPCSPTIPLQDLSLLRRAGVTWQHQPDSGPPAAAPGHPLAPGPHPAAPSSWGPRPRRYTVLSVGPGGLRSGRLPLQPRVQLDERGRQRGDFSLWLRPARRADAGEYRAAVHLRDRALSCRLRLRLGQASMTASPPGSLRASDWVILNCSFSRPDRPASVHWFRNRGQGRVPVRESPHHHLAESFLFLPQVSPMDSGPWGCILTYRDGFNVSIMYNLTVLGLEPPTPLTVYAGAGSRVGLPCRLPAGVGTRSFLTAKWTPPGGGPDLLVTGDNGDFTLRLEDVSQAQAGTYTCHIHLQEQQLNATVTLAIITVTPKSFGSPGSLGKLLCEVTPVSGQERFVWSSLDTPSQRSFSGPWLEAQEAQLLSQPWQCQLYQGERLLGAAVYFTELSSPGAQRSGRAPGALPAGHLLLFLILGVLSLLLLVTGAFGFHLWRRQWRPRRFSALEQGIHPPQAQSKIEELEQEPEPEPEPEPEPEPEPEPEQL

[3] = biological target: T1, mouse LAG-3 on transfected cells; experiment: FACS affinity on transfected cells
[4] = biological target: T3, cynomolgus LAG-3 on transfected cells (cynomolgus monkey); experiment: FACS affinity on transfected cells
T3 construct: whole, on cells; 293F cells transfected with cynomolgus LAG-3; also called cell surface cynomolgus LAG-3; monkey LAG-3

[5] = biological target: T2, human LAG-3 on transfected cells; experiment: FACS affinity on transfected cells; remark: listed apart in the source
[6] = biological target: T3, cynomolgus LAG-3 on transfected cells; experiment: FACS affinity on transfected cells; remark: listed apart in the source
[7] = biological target: T3, cynomolgus LAG-3 on transfected cells; experiment: FACS on cynomolgus LAG-3 transfected cells
Method: as §1

[8] = biological target: T4, human LAG-3 protein (SPR analyte) (human, UniProt P18627 23-450); experiment: SPR Biacore 8K, Ab as ligand, LAG-3 as analyte
T4 construct: extracellular domain
T4 sequence (looked up): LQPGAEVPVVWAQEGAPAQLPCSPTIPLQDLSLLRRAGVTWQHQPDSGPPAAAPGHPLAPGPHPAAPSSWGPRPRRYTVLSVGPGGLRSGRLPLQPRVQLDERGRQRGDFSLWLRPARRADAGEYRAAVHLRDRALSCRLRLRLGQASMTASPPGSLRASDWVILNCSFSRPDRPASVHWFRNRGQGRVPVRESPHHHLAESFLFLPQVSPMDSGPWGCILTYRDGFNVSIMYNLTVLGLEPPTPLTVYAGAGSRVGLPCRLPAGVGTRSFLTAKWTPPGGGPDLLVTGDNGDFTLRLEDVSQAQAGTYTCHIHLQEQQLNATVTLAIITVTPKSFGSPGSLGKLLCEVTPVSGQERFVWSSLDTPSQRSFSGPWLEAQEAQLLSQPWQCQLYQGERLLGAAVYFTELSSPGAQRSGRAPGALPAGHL

[9] = biological target: T5, mouse LAG-3 protein (SPR analyte) (mouse, UniProt Q61790 24-442); experiment: SPR Biacore 8K, Ab as ligand, LAG-3 as analyte
T5 construct: extracellular domain
T5 sequence (looked up): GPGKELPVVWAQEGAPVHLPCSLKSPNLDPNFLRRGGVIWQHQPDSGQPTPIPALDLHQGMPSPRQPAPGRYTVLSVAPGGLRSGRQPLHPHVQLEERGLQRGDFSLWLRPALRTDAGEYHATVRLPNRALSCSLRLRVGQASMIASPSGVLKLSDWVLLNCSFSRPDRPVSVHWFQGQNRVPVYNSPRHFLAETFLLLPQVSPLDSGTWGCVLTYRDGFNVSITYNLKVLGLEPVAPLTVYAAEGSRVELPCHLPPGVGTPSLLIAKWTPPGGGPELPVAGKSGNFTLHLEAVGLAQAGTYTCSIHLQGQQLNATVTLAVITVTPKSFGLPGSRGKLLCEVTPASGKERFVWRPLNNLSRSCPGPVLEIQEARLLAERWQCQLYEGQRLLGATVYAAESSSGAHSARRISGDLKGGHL

[10] = biological target: T4, human LAG-3 protein (SPR analyte); experiment: SPR Biacore 8K, Ab captured on anti-human Fc, LAG-3 as analyte
[11] = biological target: T5, mouse LAG-3 protein (SPR analyte); experiment: as above
[12] = biological target: T6, mFc-tagged mouse LAG-3 (mouse, UniProt Q61790 24-442); experiment: FACS competition; blocks mFc-mouse LAG-3 binding to MHC-II on A20 cells
T6 construct: extracellular domain; also called mFc-tagged mouse protein
T6 sequence (looked up): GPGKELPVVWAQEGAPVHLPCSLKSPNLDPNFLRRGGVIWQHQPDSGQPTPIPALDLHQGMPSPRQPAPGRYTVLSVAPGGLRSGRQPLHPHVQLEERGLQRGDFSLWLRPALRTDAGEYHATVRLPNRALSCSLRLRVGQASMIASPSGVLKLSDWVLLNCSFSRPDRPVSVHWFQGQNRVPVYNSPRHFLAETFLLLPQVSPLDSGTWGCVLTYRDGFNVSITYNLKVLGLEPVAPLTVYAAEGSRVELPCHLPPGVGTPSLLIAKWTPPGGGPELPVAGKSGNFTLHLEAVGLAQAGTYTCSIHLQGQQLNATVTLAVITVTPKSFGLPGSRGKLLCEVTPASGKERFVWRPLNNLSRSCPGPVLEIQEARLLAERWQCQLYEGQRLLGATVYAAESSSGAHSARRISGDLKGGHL

[13] = biological target: human CD4 (human, UniProt P01730 26-390, limits assumed); experiment: ELISA, plates coated with human CD4, goat anti-human IgG Fc-HRP
Method: Cross-reactivity to human CD4 was measured by ELISA. Plates were coated with human CD4 at 1 μg/ml overnight at 4° C. After blocking and washing, 1 μg/ml of LAG-3 antibodies were added to the plates and incubated at room temperature for 1 h. The plates were then washed and subsequently incubated with goat-anti human IgG Fc-HRP for 45 min. After washing, TMB substrate was added and the color reaction was stopped by 2M HCl. The absorbance at 450 nm was read using a microplate reader.

[14] = biological target: T2, human LAG-3 on transfected cells; experiment: FACS, serial dilutions on human LAG-3 transfected cells, PE-labeled secondary antibody
[15] = biological target: T3, cynomolgus LAG-3 on transfected cells; experiment: FACS, serial dilutions on cynomolgus LAG-3 transfected cells, PE-labeled secondary antibody
Method: as §1

[16] = biological target: T2, human LAG-3 on transfected cells; experiment: FACS on human LAG-3 transfected cells with serum-treated antibody, PE-labeled goat anti-human IgG
Method: On indicated time points (day 0, day 1, day 4, day 7 and day 14), an aliquot of serum treated sample were removed from the incubator and snap frozen in liquid N2, and then stored at −80° C. until ready for test. All the samples were quickly thawed prior to the stability test. […] MFI of the cells was measured by a flow cytometry and analyzed by FlowJo.

[17] = biological target: T7, mouse Fc (mFc)-tagged human LAG-3 (human, UniProt P18627 23-450); experiment: ELISA blocking: antibody pre-mixed with mFc-tagged human LAG-3, added to plates coated with human LSECtin (blocked ligand); detection goat anti-mouse IgG Fc-HRP
T7 construct: extracellular domain
T7 sequence (looked up): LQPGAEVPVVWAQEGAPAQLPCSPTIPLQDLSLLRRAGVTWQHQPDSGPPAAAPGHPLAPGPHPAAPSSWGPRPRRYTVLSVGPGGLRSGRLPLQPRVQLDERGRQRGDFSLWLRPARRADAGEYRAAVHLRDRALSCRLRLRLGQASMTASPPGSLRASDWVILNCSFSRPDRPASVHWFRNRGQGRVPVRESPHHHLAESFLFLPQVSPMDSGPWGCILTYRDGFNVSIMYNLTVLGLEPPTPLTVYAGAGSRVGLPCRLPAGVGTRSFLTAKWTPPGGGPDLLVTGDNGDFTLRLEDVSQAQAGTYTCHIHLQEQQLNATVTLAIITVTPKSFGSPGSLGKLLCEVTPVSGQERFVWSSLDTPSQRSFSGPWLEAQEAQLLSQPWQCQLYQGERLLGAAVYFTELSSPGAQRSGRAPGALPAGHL
Method: (§2) 96-well plates were coated with human LSECtin or Galectin-3 at 0.5 μg/ml overnight at 4° C., respectively. […] After blocking and washing, the mixture was transferred to the plates and incubated at room temperature for 1 h. The plates were then washed and subsequently incubated with the secondary antibody goat-anti Mouse IgG Fc-HRP for 1 h. After washing, TMB substrate was added and the color reaction was stopped by 2M HCl. The absorbance at 450 nm was read using a microplate reader.

[18] = biological target: T7, mouse Fc (mFc)-tagged human LAG-3; experiment: as above; remark: listed apart in the source
Method: as §2

[19] = biological target: T7, mouse Fc (mFc)-tagged human LAG-3; experiment: ELISA blocking: antibody pre-mixed with mFc-tagged human LAG-3, added to plates coated with human Galectin-3 (blocked ligand); detection goat anti-mouse IgG Fc-HRP
Method: as §2

[20] = biological target: T7, mouse Fc (mFc)-tagged human LAG-3; experiment: as above; remark: listed apart in the source
Method: as §2

[21] = biological target: T7, mouse Fc (mFc)-tagged human LAG-3; experiment: FACS blocking: antibody pre-mixed with mFc-tagged human LAG-3, added to Raji cells; blocked ligand: human MHC-II on Raji cells; detection goat anti-mouse IgG Fc-PE
Method: (§3) The mixture was transferred into the 96-well plates seeded with Raji cells. Goat anti-mouse IgG Fc-PE antibody was used to detect the binding of LAG-3 protein to Raji cells. The mean fluorescence intensity (MFI) was evaluated by flow cytometry and analyzed by FlowJo.

[22] = biological target: T7, mouse Fc (mFc)-tagged human LAG-3; experiment: FACS blocking: antibody pre-mixed with mFc-tagged human LAG-3; blocked ligand: cell surface human MHC-II (paragraph 254 says 'on A20 cells' for this figure); the column head on the sheet reads 'EC50 (nM)', the text calls the value IC50
Method: as §3

B1: W3396-R2-1 (Fc fusion)
VHH: QVQLVESGGGVVQPGGSLRLSCAASGLTLSQYTMGWFRQAPGKERELVAAIHWTSSVTDYADSVYGRFTISRDDSKNTGYLQMNSLRAEDTAVYYCAATWYYTHRGSFDYWGQGTLVTVSS
Question: Which results are given for B1?
Answer: EC50 [1]: 0.1 nM; Bmax [2]: 250 pM; Kd [2]: 0.81 nM; Bmax [3]: 57 pM; Kd [3]: 0.057 nM; Bmax [4]: 280 pM; Kd [4]: 3.3 nM; Bmax [5]: 54 pM; Kd [5]: 0.46 nM; Bmax [6]: 380 pM; Kd [6]: 6.3 nM; EC50 [7]: 2.34 nM; Kd [8]: 0.183 nM; koff [8]: 2.73e-05 s⁻¹; kon [8]: 149000 M⁻¹ s⁻¹; Kd [9]: 2.27 pM; koff [9]: 2.31e-06 s⁻¹; kon [9]: 1.02e+06 M⁻¹ s⁻¹; Kd [10]: 0.162 nM; koff [10]: 2.7e-05 s⁻¹; kon [10]: 166000 M⁻¹ s⁻¹; Kd [11]: < 1.22 pM; koff [11]: < 1e-06 s⁻¹; kon [11]: 819000 M⁻¹ s⁻¹; IC50 [12]: 2.9 nM; binding result [13]: no binding (tested: 66.7 nM); EC50 [14]: 0.364 nM; EC50 [15]: 2.34 nM; EC50 (read off the curve) [16]: ~0.1 nM; IC50 [17]: 0.642 nM; IC50 [18]: 1.81 nM; IC50 [19]: 0.926 nM; IC50 [20]: 1.86 nM; IC50 [21]: 0.84 nM; IC50 [22]: 1.78 nM

Reference: patent US20220169722A1 (WUXI BIOLOGICS IRELAND, published 2022)
